Our source for the Ki values is patent publication US20180273587A1 (AILERON THERAPEUTICS, published 2018).

Positions of bridges follow the written chain, without caps; N, C: chain ends. Non-standard residues stand in square brackets, D forms with d. Phe(4-F) = N[C@@H](Cc1ccc(F)cc1)C(=O)O; 2Nal = N[C@@H](Cc1ccc2ccccc2c1)C(=O)O; hPhe = N[C@@H](CCc1ccccc1)C(=O)O; R8 = C=CCCCCCC[C@@](C)(N)C(=O)O; hLeu = CC(C)CC[C@H](N)C(=O)O; S5 = C=CCCC[C@](C)(N)C(=O)O

B1: SEQ ID NO: 1770 (peptide)
peptide: IWIAQALRAIGDAFNAYYX
modifications: N-terminal Ac; $r8 at 9 and $ at 16 (crosslinked); Aib at 19; C-terminal NH2
B2: SEQ ID NO: 1780 (peptide)
peptide: Ac-AWIAAALR[R8][hLeu]GDAFN[S5]A[Phe(4-F)]A-NH2
modifications: staple 9-16
SMILES: CC[C@H](C)[C@H](NC(=O)[C@H](Cc1c[nH]c2ccccc12)NC(=O)[C@H](C)NC(C)=O)C(=O)N[C@@H](C)C(=O)N[C@@H](C)C(=O)N[C@@H](C)C(=O)N[C@@H](CC(C)C)C(=O)N[C@@H](CCCNC(=N)N)C(=O)N[C@]1(C)CCCCCCC=CCCC[C@@](C)(C(=O)N[C@@H](C)C(=O)N[C@@H](Cc2ccc(F)cc2)C(=O)N[C@@H](C)C(N)=O)NC(=O)[C@H](CC(N)=O)NC(=O)[C@H](Cc2ccccc2)NC(=O)[C@H](C)NC(=O)[C@H](CC(=O)O)NC(=O)CNC(=O)[C@H](CCC(C)C)NC1=O
B3: SEQ ID NO: 1733 (peptide)
peptide: Ac-IWISAALR[R8]IGDAFN[S5]YYA-NH2
modifications: staple 9-16
SMILES: CC[C@H](C)[C@H](NC(C)=O)C(=O)N[C@@H](Cc1c[nH]c2ccccc12)C(=O)N[C@H](C(=O)N[C@@H](CO)C(=O)N[C@@H](C)C(=O)N[C@@H](C)C(=O)N[C@@H](CC(C)C)C(=O)N[C@@H](CCCNC(=N)N)C(=O)N[C@]1(C)CCCCCCC=CCCC[C@@](C)(C(=O)N[C@@H](Cc2ccc(O)cc2)C(=O)N[C@@H](Cc2ccc(O)cc2)C(=O)N[C@@H](C)C(N)=O)NC(=O)[C@H](CC(N)=O)NC(=O)[C@H](Cc2ccccc2)NC(=O)[C@H](C)NC(=O)[C@H](CC(=O)O)NC(=O)CNC(=O)[C@H]([C@@H](C)CC)NC1=O)[C@@H](C)CC
B4: SEQ ID NO: 1735 (peptide)
peptide: Ac-IWIFAALR[R8]IGDAFN[S5]YYA-NH2
modifications: staple 9-16
SMILES: CC[C@H](C)[C@H](NC(C)=O)C(=O)N[C@@H](Cc1c[nH]c2ccccc12)C(=O)N[C@H](C(=O)N[C@@H](Cc1ccccc1)C(=O)N[C@@H](C)C(=O)N[C@@H](C)C(=O)N[C@@H](CC(C)C)C(=O)N[C@@H](CCCNC(=N)N)C(=O)N[C@]1(C)CCCCCCC=CCCC[C@@](C)(C(=O)N[C@@H](Cc2ccc(O)cc2)C(=O)N[C@@H](Cc2ccc(O)cc2)C(=O)N[C@@H](C)C(N)=O)NC(=O)[C@H](CC(N)=O)NC(=O)[C@H](Cc2ccccc2)NC(=O)[C@H](C)NC(=O)[C@H](CC(=O)O)NC(=O)CNC(=O)[C@H]([C@@H](C)CC)NC1=O)[C@@H](C)CC
B5: SEQ ID NO: 1734 (peptide)
peptide: Ac-IWILAALR[R8]IGDAFN[S5]YYA-NH2
modifications: staple 9-16
SMILES: CC[C@H](C)[C@H](NC(C)=O)C(=O)N[C@@H](Cc1c[nH]c2ccccc12)C(=O)N[C@H](C(=O)N[C@@H](CC(C)C)C(=O)N[C@@H](C)C(=O)N[C@@H](C)C(=O)N[C@@H](CC(C)C)C(=O)N[C@@H](CCCNC(=N)N)C(=O)N[C@]1(C)CCCCCCC=CCCC[C@@](C)(C(=O)N[C@@H](Cc2ccc(O)cc2)C(=O)N[C@@H](Cc2ccc(O)cc2)C(=O)N[C@@H](C)C(N)=O)NC(=O)[C@H](CC(N)=O)NC(=O)[C@H](Cc2ccccc2)NC(=O)[C@H](C)NC(=O)[C@H](CC(=O)O)NC(=O)CNC(=O)[C@H]([C@@H](C)CC)NC1=O)[C@@H](C)CC
B6: SEQ ID NO: 1727 (peptide)
peptide: Ac-IHIAAALR[R8]IGDAFN[S5]YYA-NH2
modifications: staple 9-16
SMILES: CC[C@H](C)[C@H](NC(C)=O)C(=O)N[C@@H](Cc1c[nH]cn1)C(=O)N[C@H](C(=O)N[C@@H](C)C(=O)N[C@@H](C)C(=O)N[C@@H](C)C(=O)N[C@@H](CC(C)C)C(=O)N[C@@H](CCCNC(=N)N)C(=O)N[C@]1(C)CCCCCCC=CCCC[C@@](C)(C(=O)N[C@@H](Cc2ccc(O)cc2)C(=O)N[C@@H](Cc2ccc(O)cc2)C(=O)N[C@@H](C)C(N)=O)NC(=O)[C@H](CC(N)=O)NC(=O)[C@H](Cc2ccccc2)NC(=O)[C@H](C)NC(=O)[C@H](CC(=O)O)NC(=O)CNC(=O)[C@H]([C@@H](C)CC)NC1=O)[C@@H](C)CC
B7: SEQ ID NO: 1732 (peptide)
peptide: Ac-I[2Nal]IAAALR[R8]IGDAFN[S5]YYA-NH2
modifications: staple 9-16
SMILES: CC[C@H](C)[C@H](NC(C)=O)C(=O)N[C@@H](Cc1ccc2ccccc2c1)C(=O)N[C@H](C(=O)N[C@@H](C)C(=O)N[C@@H](C)C(=O)N[C@@H](C)C(=O)N[C@@H](CC(C)C)C(=O)N[C@@H](CCCNC(=N)N)C(=O)N[C@]1(C)CCCCCCC=CCCC[C@@](C)(C(=O)N[C@@H](Cc2ccc(O)cc2)C(=O)N[C@@H](Cc2ccc(O)cc2)C(=O)N[C@@H](C)C(N)=O)NC(=O)[C@H](CC(N)=O)NC(=O)[C@H](Cc2ccccc2)NC(=O)[C@H](C)NC(=O)[C@H](CC(=O)O)NC(=O)CNC(=O)[C@H]([C@@H](C)CC)NC1=O)[C@@H](C)CC
notes: Row prints Ac-I2NalIAAALR$r8IGDAFN$YYA-NH2
B8: SEQ ID NO: 1728 (peptide)
peptide: Ac-ISIAAALR[R8]IGDAFN[S5]YYA-NH2
modifications: staple 9-16
SMILES: CC[C@H](C)[C@H](NC(C)=O)C(=O)N[C@@H](CO)C(=O)N[C@H](C(=O)N[C@@H](C)C(=O)N[C@@H](C)C(=O)N[C@@H](C)C(=O)N[C@@H](CC(C)C)C(=O)N[C@@H](CCCNC(=N)N)C(=O)N[C@]1(C)CCCCCCC=CCCC[C@@](C)(C(=O)N[C@@H](Cc2ccc(O)cc2)C(=O)N[C@@H](Cc2ccc(O)cc2)C(=O)N[C@@H](C)C(N)=O)NC(=O)[C@H](CC(N)=O)NC(=O)[C@H](Cc2ccccc2)NC(=O)[C@H](C)NC(=O)[C@H](CC(=O)O)NC(=O)CNC(=O)[C@H]([C@@H](C)CC)NC1=O)[C@@H](C)CC
B9: SEQ ID NO: 1729 (peptide)
peptide: Ac-INIAAALR[R8]IGDAFN[S5]YYA-NH2
modifications: staple 9-16
SMILES: CC[C@H](C)[C@H](NC(C)=O)C(=O)N[C@@H](CC(N)=O)C(=O)N[C@H](C(=O)N[C@@H](C)C(=O)N[C@@H](C)C(=O)N[C@@H](C)C(=O)N[C@@H](CC(C)C)C(=O)N[C@@H](CCCNC(=N)N)C(=O)N[C@]1(C)CCCCCCC=CCCC[C@@](C)(C(=O)N[C@@H](Cc2ccc(O)cc2)C(=O)N[C@@H](Cc2ccc(O)cc2)C(=O)N[C@@H](C)C(N)=O)NC(=O)[C@H](CC(N)=O)NC(=O)[C@H](Cc2ccccc2)NC(=O)[C@H](C)NC(=O)[C@H](CC(=O)O)NC(=O)CNC(=O)[C@H]([C@@H](C)CC)NC1=O)[C@@H](C)CC
B10: SEQ ID NO: 1731 (peptide)
peptide: Ac-IFIAAALR[R8]IGDAFN[S5]YYA-NH2
modifications: staple 9-16
SMILES: CC[C@H](C)[C@H](NC(C)=O)C(=O)N[C@@H](Cc1ccccc1)C(=O)N[C@H](C(=O)N[C@@H](C)C(=O)N[C@@H](C)C(=O)N[C@@H](C)C(=O)N[C@@H](CC(C)C)C(=O)N[C@@H](CCCNC(=N)N)C(=O)N[C@]1(C)CCCCCCC=CCCC[C@@](C)(C(=O)N[C@@H](Cc2ccc(O)cc2)C(=O)N[C@@H](Cc2ccc(O)cc2)C(=O)N[C@@H](C)C(N)=O)NC(=O)[C@H](CC(N)=O)NC(=O)[C@H](Cc2ccccc2)NC(=O)[C@H](C)NC(=O)[C@H](CC(=O)O)NC(=O)CNC(=O)[C@H]([C@@H](C)CC)NC1=O)[C@@H](C)CC
B11: SEQ ID NO: 1730 (peptide)
peptide: Ac-ILIAAALR[R8]IGDAFN[S5]YYA-NH2
modifications: staple 9-16
SMILES: CC[C@H](C)[C@H](NC(C)=O)C(=O)N[C@@H](CC(C)C)C(=O)N[C@H](C(=O)N[C@@H](C)C(=O)N[C@@H](C)C(=O)N[C@@H](C)C(=O)N[C@@H](CC(C)C)C(=O)N[C@@H](CCCNC(=N)N)C(=O)N[C@]1(C)CCCCCCC=CCCC[C@@](C)(C(=O)N[C@@H](Cc2ccc(O)cc2)C(=O)N[C@@H](Cc2ccc(O)cc2)C(=O)N[C@@H](C)C(N)=O)NC(=O)[C@H](CC(N)=O)NC(=O)[C@H](Cc2ccccc2)NC(=O)[C@H](C)NC(=O)[C@H](CC(=O)O)NC(=O)CNC(=O)[C@H]([C@@H](C)CC)NC1=O)[C@@H](C)CC
B12: SEQ ID NO: 1743 (peptide)
peptide: Ac-IWIAQALR[R8]IGDA[hPhe]N[S5]YYA-NH2
modifications: staple 9-16
SMILES: CC[C@H](C)[C@H](NC(C)=O)C(=O)N[C@@H](Cc1c[nH]c2ccccc12)C(=O)N[C@H](C(=O)N[C@@H](C)C(=O)N[C@@H](CCC(N)=O)C(=O)N[C@@H](C)C(=O)N[C@@H](CC(C)C)C(=O)N[C@@H](CCCNC(=N)N)C(=O)N[C@]1(C)CCCCCCC=CCCC[C@@](C)(C(=O)N[C@@H](Cc2ccc(O)cc2)C(=O)N[C@@H](Cc2ccc(O)cc2)C(=O)N[C@@H](C)C(N)=O)NC(=O)[C@H](CC(N)=O)NC(=O)[C@H](CCc2ccccc2)NC(=O)[C@H](C)NC(=O)[C@H](CC(=O)O)NC(=O)CNC(=O)[C@H]([C@@H](C)CC)NC1=O)[C@@H](C)CC

As a reminder, the Ki is the dissociation constant of the complex between target and ligand, obtained from inhibition or displacement. A high value points to weaker binding.

T1 sequence (Q07820 172-327 limits assumed): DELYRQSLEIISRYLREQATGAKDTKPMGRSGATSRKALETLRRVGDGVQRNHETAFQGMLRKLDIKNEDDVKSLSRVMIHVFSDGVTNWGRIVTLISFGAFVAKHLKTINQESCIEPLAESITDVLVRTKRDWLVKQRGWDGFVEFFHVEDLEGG

One assay addresses T1, MCL-1 (UniProt Q07820 172-327, limits assumed).
T1 construct: Target of the Ki columns; also called Myeloid cell leukemia 1
In words: Ki; method not stated; unit not printed (nM per Table 6).
The molecule B1 displayed a Ki of 29 nM.

Turning to B2, the Ki was determined as 23 nM.

B3 displayed a Ki of 3.6 nM.

B4 came in with a Ki of 17.2 nM.

Turning to B5, the Ki turned out to be 19.7 nM.

In the case of B6, the affinity, expressed as Ki, was 6.6 nM.

For B7, the Ki was 13.7 nM.

In the case of B8, the Ki is 15.3 nM.

On to B9, for which the Ki turned out to be 11.2 nM.

For B10, the Ki worked out at 10.2 nM.

As for B11, the Ki worked out at 10.2 nM.

B12 yielded a Ki of 2.7 nM.

Another assay deals with T2, BCL-XL (UniProt Q07817 1-209).
T2 construct: Target of the Ki columns
T2 sequence (Q07817 1-209): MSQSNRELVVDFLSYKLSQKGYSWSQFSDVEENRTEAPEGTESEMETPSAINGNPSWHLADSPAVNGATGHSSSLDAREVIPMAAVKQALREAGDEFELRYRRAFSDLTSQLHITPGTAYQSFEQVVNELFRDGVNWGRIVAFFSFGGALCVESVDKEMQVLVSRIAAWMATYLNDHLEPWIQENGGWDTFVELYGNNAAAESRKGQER
The description is as above.
With B2, affinity was put at a Ki of 9 nM.

B3 registered a Ki of 67.8 nM. Compared with the last molecule, the Ki is about 7.5-fold higher.

Take B4: the Ki was found to be 110 nM.

For B5, the affinity, expressed as Ki, was 96.2 nM.

B6 showed a Ki of 19.5 nM.

As to B7, the affinity corresponds to a Ki of 55.3 nM.

Consider B8, for which the Ki is 56.2 nM. The Ki values of the last two molecules are within 1.5-fold of each other.

With B9, the Ki stood at 37.3 nM.

B10 showed a Ki of 45.3 nM.

B11: the Ki was found to be 71.8 nM.

The molecule B12 registered a Ki of 16.6 nM.

Another assay deals with T3, BCL-2 (UniProt P10415 1-217, limits assumed).
T3 construct: Target of the Ki columns
T3 sequence (P10415 1-217 limits assumed): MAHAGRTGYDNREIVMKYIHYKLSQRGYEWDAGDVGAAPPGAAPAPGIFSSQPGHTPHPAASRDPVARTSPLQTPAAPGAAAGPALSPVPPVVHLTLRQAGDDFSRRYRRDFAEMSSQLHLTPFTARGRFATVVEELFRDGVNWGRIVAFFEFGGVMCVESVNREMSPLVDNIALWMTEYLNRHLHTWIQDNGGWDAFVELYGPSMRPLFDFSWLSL
Described as above.
B1 registered a Ki of 218 nM.

Molecule B3 gave a Ki of 117 nM. Against the preceding molecule, the Ki is about 1.9-fold lower.

As for B4, the affinity corresponds to a Ki of 125 nM. The Ki values of the last two molecules are within 1.5-fold of each other.

In turn, B5 came in with a Ki of 170 nM.

With B6, affinity was put at a Ki of 43 nM.

The molecule B7 returned a Ki of 144 nM. Compared with the last molecule, the Ki is about 3.3-fold higher.

On to B8, for which affinity was put at a Ki of 89.5 nM.

The molecule B9 had a Ki of 62.5 nM.

Molecule B10 returned a Ki of 95.9 nM.

Take B11: the Ki was 126 nM. The Ki values of the last two molecules are within 1.5-fold of each other.

On to B12, for which affinity was put at a Ki of 38.9 nM.
